By stoichiometry N is commonly meant a count of units in the complex or per binding partner.

Our source for the limit of detection and stoichiometry N values is article doi:10.1101/2021.06.28.21259671.

Test [1] concerns the target chimeric secretory component (CSC) of the polymeric immunoglobulin receptor (rabbit/human chimera). In words: lateral flow assay.
Test [2] has the same target. Briefly: SEC. On the technique in general: In gel filtration, larger molecules generally elute earlier.

“CB6-dIgA1 (dimeric IgA1 form of the SARS-CoV-2 specific monoclonal antibody CB6, with J chain)” showed a limit of detection in test [1] of 0.123 µg/mL. With “CB6-dIgA2 (dimeric IgA2 form of the SARS-CoV-2 specific monoclonal antibody CB6, with J chain)”, in test [1], the limit of detection came to 0.128 µg/mL. In test [2], “chimeric secretory component (CSC) of the polymeric immunoglobulin receptor” returned a stoichiometry N of 2.
